Measurements: patent US20230047413A1 (Janssen / Centocor, published 2023)
Non-standard residues stand in square brackets, D forms with d. *: point of attachment. Biotin = O=C1N[C@H]2[C@H](CS[C@H]2CCCCC(=O)*)N1; pT = C[C@@H](OP(=O)(O)O)[C@H](N)C(=O)O; pS = N[C@@H](COP(=O)(O)O)C(=O)O; dPEG4 = PEG4 moiety

Columns and labels:
Peptide-1 [1] = target: T1, Peptide-1 (human, phosphothreonine 212, phosphoserine 214, phosphothreonine 217 (tau 2N4R numbering); short chain biotin (SCBiot) and dPEG4 at the N-terminus; amide at the C-terminus); experiment: SPR ProteOn, peptide captured, Fab as analyte
T1 construct: also called tau peptide phosphorylated at T212/S214/T217
Protocol: (§1) The binding affinity of PT3 Fab towards each of the fourteen tau phosphopeptides shown in Table 6 was assessed by surface plasmon resonance (SPR) using a Bio-Rad ProteOn XPR36. Peptides were synthesized by standard chemical methods (New England Peptide) with short-chain biotin and a PEG4 moiety at the N-terminus. Biotinylated peptide was captured on a neutravidin-coated NLC biosensor chip and PT3 Fab was flowed over the surface to measure kinetic parameters.
(§2) All experiments were performed at 25° C. using phosphate buffered saline, pH 7.4, 0.005% Tween 20 (PBST) as both running buffer and sample dilution buffer. Prior to running samples, the NLC chip was conditioned by running PBST over the chip surface for 1 h. Approximately 5-10 RU of peptide was captured on the chip surface by diluting peptide to 10 ng/mL in PBST and injecting over the flow channels at 30 μL/min for 100 s. Serial dilutions of PT3 Fab (1.1-90 nM) were analyzed and, with the exception of Peptide-8, each concentration was measured in duplicate. After capture of peptides, the antibody titration was injected at 60 μL/min for 3 minutes (association phase), followed by 300 s of buffer only (dissociation phase).
(§3) The data were double referenced by subtraction of the interspot response and the curves generated by the buffer-only injection. The chip surface was regenerated using a single injection of 0.85% phosphoric acid at 30 μL/min for 100 s contact time, followed by four injections of running buffer before the next antibody titration injection. The data processing and kinetic analysis were done using the instrument software. The data were analyzed using a simple Langmuir 1:1 binding model.

Peptide-2 [2] = target: T2, Peptide-2 (human, phosphothreonine 212, phosphothreonine 217 (tau 2N4R numbering); short chain biotin (SCBiot) and dPEG4 at the N-terminus; amide at the C-terminus); experiment: SPR ProteOn, peptide captured, Fab as analyte
T2 construct: also called pT212/pT217-tau peptide (Peptide-2)
Protocol: as §1, §2, §3

Peptide-3 = Peptide-3 (human, phosphoserine 214, phosphothreonine 217 (tau 2N4R numbering); SCBiot and dPEG4 at the N-terminus; amide at the C-terminus); experiment: SPR ProteOn, peptide captured, Fab as analyte
Protocol: as §1, §2, §3

Peptide-4 [3] = target: T3, Peptide-4 (human, phosphoserine 210, phosphothreonine 217 (tau 2N4R numbering); SCBiot and dPEG4 at the N-terminus; amide at the C-terminus); experiment: SPR ProteOn, peptide captured, Fab as analyte
Protocol: as §1, §2, §3

Peptide-5 [4] = target: T4, Peptide-5 (human, phosphoserine 210, phosphoserine 214, phosphothreonine 217 (tau 2N4R numbering); SCBiot and dPEG4 at the N-terminus; amide at the C-terminus); experiment: SPR ProteOn, peptide captured, Fab as analyte
Protocol: as §1, §2, §3

Peptide-6 [5] = target: T5, Peptide-6 (human, phosphothreonine 217 (tau 2N4R numbering); SCBiot and dPEG4 at the N-terminus; amide at the C-terminus); experiment: SPR ProteOn, peptide captured, Fab as analyte
Protocol: as §1, §2, §3

Peptide-7 [6] = target: T6, Peptide-7 (human, phosphothreonine 212, phosphoserine 214 (tau 2N4R numbering); SCBiot and dPEG4 at the N-terminus; amide at the C-terminus); experiment: SPR ProteOn, peptide captured, Fab as analyte
Protocol: as §1, §2, §3

Peptide-11 = target: T7, Peptide-11 (human); experiment: SPR ProteOn, peptide captured, Fab as analyte
T7 peptide: {Biotin-dPEG4}-SPGTPG[pS]RSR[pT]P[pS]LPTPPT-NH2
Protocol: as §1, §2, §3

Peptide-2 [7] = target: T2, Peptide-2; experiment: SPR ProteOn, peptide captured, Fab as analyte; range of n=2; lower end of n=2 range
Protocol: as §1, §2, §3

Peptide-4 [8] = target: T3, Peptide-4; experiment: as above
Protocol: as §1, §2, §3

Peptide-5 [9] = target: T4, Peptide-5; experiment: as above
Protocol: as §1, §2, §3

Peptide-6 [10] = target: T5, Peptide-6; experiment: as above
Protocol: as §1, §2, §3

Peptide-7 [11] = target: T6, Peptide-7; experiment: as above
Protocol: as §1, §2, §3

Peptide-5 [12] = target: T4, Peptide-5; experiment: SPR ProteOn, peptide captured, Fab as analyte; range of n=2; upper end of n=2 range
Protocol: as §1, §2, §3

Peptide-6 [13] = target: T5, Peptide-6; experiment: SPR ProteOn, peptide captured, Fab as analyte; range of n=2; Peptide-6 (pT217 only); upper end of n=2 range
Protocol: as §1, §2
(§4) The data were double referenced by subtraction of the interspot response and the curves generated by the buffer-only injection. […] The data were analyzed using a simple Langmuir 1:1 binding model.

Peptide-1 [14] = target: T1, Peptide-1; experiment: SPR ProteOn, peptide captured, Fab as analyte; range of n=2; Peptide-1 (pT212/pS214/pT217); lower end of n=2 range
Protocol: as §1, §2, §4

T1 sequence (peptide, as listed by the source): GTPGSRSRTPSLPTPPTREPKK

koff (Peptide-1 [1]): 0.00028 s⁻¹ | kon (Peptide-1 [1]): 1.27e+06 M⁻¹ s⁻¹ | koff (Peptide-2 [2]): 0.000168 s⁻¹ | kon (Peptide-2 [2]): 764000 M⁻¹ s⁻¹ | koff (Peptide-3): 0.00547 s⁻¹ | kon (Peptide-3): 1.04e+06 M⁻¹ s⁻¹ | koff (Peptide-4 [3]): 0.00627 s⁻¹ | kon (Peptide-4 [3]): 968000 M⁻¹ s⁻¹ | koff (Peptide-5 [4]): 0.00584 s⁻¹ | kon (Peptide-5 [4]): 704000 M⁻¹ s⁻¹ | koff (Peptide-6 [5]): 0.00616 s⁻¹ | kon (Peptide-6 [5]): 541000 M⁻¹ s⁻¹ | koff (Peptide-7 [6]): 0.00555 s⁻¹ | kon (Peptide-7 [6]): 422000 M⁻¹ s⁻¹ | binding result (Peptide-11): no binding (tested: 1.1-90 nM) | kon (Peptide-2 [7]): 546000 M⁻¹ s⁻¹ | koff (Peptide-4 [8]): 0.00619 s⁻¹ | kon (Peptide-4 [8]): 922000 M⁻¹ s⁻¹ | koff (Peptide-5 [9]): 0.00569 s⁻¹ | kon (Peptide-5 [9]): 545000 M⁻¹ s⁻¹ | koff (Peptide-6 [10]): 0.00606 s⁻¹ | kon (Peptide-6 [10]): 524000 M⁻¹ s⁻¹ | koff (Peptide-7 [11]): 0.00549 s⁻¹ | kon (Peptide-7 [11]): 357000 M⁻¹ s⁻¹ | koff (Peptide-5 [12]): 0.00598 s⁻¹ | kon (Peptide-5 [12]): 863000 M⁻¹ s⁻¹ | Kd (Peptide-6 [13]): 10.9 to 11.9 nM | Kd (Peptide-1 [14]): 0.14 to 0.38 nM
B1: PT3 Fab (B187) (Fab, V domains shown)
VH: EVKLVESGGDLVKPGGSLKLSCAASGFTFSSYAMSWVRQNPEKRLEWVASISKGGNTYYPNSVKGRFTISRDNARNILYLQMSSLRSEDTALYYCARGWGDYGWFAYWGQVTLVTVSA
VL: DIKMTQSPSSMYASLGERVTITCKASQDINRYLNWFQQKPGKSPKTLIYRANRLLDGVPSRFSGSGSGQDYSLTISSLDYEDMGIYYCLQYDEFPLTFGDGTKLELK
notes: Chimeric Fab: mouse variable regions, human IgG1/kappa constant region, 6xHis tag at the C-terminus of the heavy chain; also called mouse parental Fab of PT3
